Results on one molecule are retold here after patent publication US20220185894A1 (F STAR THERAPEUTICS, published 2022).

In test [1] the target is T1, recombinant Fc-tagged human LAG-3 (R&D Systems, 2319-L3-050) (human, UniProt P18627 23-450).
T1 construct: Bought protein; also called LAG-3 Fc; human LAG-3-Fc; not shown: Fc tag of the bought fusion protein
T1 sequence: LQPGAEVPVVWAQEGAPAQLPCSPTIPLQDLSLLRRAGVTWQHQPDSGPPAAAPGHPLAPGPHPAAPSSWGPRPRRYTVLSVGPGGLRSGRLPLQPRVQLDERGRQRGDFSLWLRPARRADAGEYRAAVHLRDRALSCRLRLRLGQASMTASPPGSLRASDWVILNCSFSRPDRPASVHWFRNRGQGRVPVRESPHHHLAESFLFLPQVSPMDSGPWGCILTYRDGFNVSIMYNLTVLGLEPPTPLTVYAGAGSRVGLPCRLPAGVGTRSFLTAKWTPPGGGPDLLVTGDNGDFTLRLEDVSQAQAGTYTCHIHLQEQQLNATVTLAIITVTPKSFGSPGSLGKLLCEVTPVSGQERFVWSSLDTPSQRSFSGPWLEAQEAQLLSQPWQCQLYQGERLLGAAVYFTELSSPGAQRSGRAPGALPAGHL
Briefly: SPR, mAb captured on Protein L, human LAG-3 Fc injected (from 0.5 nM). On the procedure: Protein L (Thermo, 21189) was immobilized on flow cells 1 and 2 of a Series S CM5 chip (GE Healthcare, BR-1005-30) by amine coupling (GE Healthcare, BR-1000-50) to a surface density of 2000 RU by following the manufacturer's instructions for the BIAcore T200 instrument. […] The association time was 3 min and the dissociation time was 6 min. Running buffer was HBS-P (GE Healthcare, BR-1003-68). Both flow cells were regenerated by injecting 10 mM sodium hydroxide (NaOH) at a flow rate of 100 μl/min for 20 seconds. The data were analysed by double referencing against the blank flow cell.
The binding kinetics were fit with a 1:1 Langmuir model to generate binding association (kₐ) and dissociation (kd) rates. Equilibrium binding constants (KD) were calculated by dividing the dissociation rate by the association rate for each sample. Data analysis was performed with BiaEvaluation software version 3.2.
(SPR reads the build-up and loss of mass on a sensor chip optically.)

In test [2] the target is T2, human PD-L1 Fc (R&D Systems, 156-B7) (human, UniProt Q9NZQ7 19-239).
T2 construct: Bought protein; not shown: Fc tag of the bought fusion protein
T2 sequence (Q9NZQ7 19-239 limits assumed): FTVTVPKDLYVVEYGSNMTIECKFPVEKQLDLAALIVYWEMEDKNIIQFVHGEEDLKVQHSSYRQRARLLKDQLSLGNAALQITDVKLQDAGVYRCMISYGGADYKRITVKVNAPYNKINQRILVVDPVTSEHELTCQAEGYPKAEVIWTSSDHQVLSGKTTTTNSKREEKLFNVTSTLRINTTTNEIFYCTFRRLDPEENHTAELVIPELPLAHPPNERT
Briefly: SPR, BIAcore T200; mAb captured on Protein L, PD-L1 Fc injected.

A word on the Kd: it is the constant that tells how readily two partners part at equilibrium. As usually defined, the koff is a measure of how fast the partners let go of each other. A high value points to fast dissociation. In general, kon refers to the rate constant with which the complex forms.

B1: anti-human PD-L1 mAb 84G09 with LALA mutation (antibody, human IgG1, kappa, L234A L235A)
heavy: not shown
light: DIQMTQSPSSLSASVGDRVTITCRASQSISSYLNWYQQKPGKAPKPLIYVASSLQSGVPSSFSGSGSGTDFTLTISSLQPEDFATYYCQQSYSNPITFGQGTRLEIKRTVAAPSVFIFPPSDEQLKSGTASVVCLLNNFYPREAKVQWKVDNALQSGNSQESVTEQDSKDSTYSLSSTLTLSKADYEKHKVYACEVTHQGLSSPVTKSFNRGEC
notes: Human IgG1 with LALA; also called 84G09LALA; 84G09 LALA
With B1, the binding result in test [1] is “no binding”. For the same molecule, in test [2], the equilibrium dissociation constant (Kd) stood at 1.2 nM, the koff amounted to 0.00046 s⁻¹ and the association rate constant (kon) was found to be 380000 M⁻¹ s⁻¹.
